The target of data set [1] is T1, rhSmad1 MH1 (Homo sapiens, UniProt Q15797 1-143). As to the kind of experiment: EMSA. In general terms: A gel shift assay detects complexes by their altered migration in electrophoresis.
Data set [2] deals with T1, rhSmad1 MH1. As to the kind of experiment: competition.
Data set [3] addresses T1, rhSmad1 MH1. As to the kind of experiment: competition. The source holds these as a separate data set.

T1 sequence (Q15797 1-143): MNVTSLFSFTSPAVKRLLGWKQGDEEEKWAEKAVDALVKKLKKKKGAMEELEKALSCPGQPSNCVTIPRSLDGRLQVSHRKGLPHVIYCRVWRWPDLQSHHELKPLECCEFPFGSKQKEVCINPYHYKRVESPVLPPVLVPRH

B1: GC-SBE WT (dsDNA)
DNA 1: ACAGCTCTGGAGCCAGATGGCCTGG
DNA 2: CCAGGCCATCTGGCTCCAGAGCTGT
B1: the binding result with rhSmad1 MH1 [1] is listed as “binds”.

B2: GC-SBE Cmut (GGCGCC) (dsDNA)
DNA 1: ACAGCTCTGGCGCCAGATGGCCTGG
DNA 2: CCAGGCCATCTGGCGCCAGAGCTGT
On to B2, for which the binding result with rhSmad1 MH1 [2] is listed as “binds”.

B3: GC-SBE mut (dsDNA)
DNA 1: ACAGCTCTAGATCCAGATGGCCTGG
DNA 2: CCAGGCCATCTGGATCTAGAGCTGT
Consider B3, for which the binding result with rhSmad1 MH1 [3] is reported as “no binding”.

Values taken from paper PMC3203580.
